# From patent publication US20230181718A1
# Target: Endo-H treated SApNPs
# Assay: BLI, Octet RED96; Endo-H treated against wildtype SApNPs
substance,measurement,value
VRC01 (antibody),fold higher binding than the wildtype SApNPs,2 to 3.5 fold
